{"source": "patent US20230174644A1", "biological_target": "Recombinant nucleolin fused with a polyhistidine (His)6 tag, made in Pichia GS115 (human) (UniProt P19338)", "sequence (P19338 other isoform, or with tags, fused parts or gaps limits assumed)": "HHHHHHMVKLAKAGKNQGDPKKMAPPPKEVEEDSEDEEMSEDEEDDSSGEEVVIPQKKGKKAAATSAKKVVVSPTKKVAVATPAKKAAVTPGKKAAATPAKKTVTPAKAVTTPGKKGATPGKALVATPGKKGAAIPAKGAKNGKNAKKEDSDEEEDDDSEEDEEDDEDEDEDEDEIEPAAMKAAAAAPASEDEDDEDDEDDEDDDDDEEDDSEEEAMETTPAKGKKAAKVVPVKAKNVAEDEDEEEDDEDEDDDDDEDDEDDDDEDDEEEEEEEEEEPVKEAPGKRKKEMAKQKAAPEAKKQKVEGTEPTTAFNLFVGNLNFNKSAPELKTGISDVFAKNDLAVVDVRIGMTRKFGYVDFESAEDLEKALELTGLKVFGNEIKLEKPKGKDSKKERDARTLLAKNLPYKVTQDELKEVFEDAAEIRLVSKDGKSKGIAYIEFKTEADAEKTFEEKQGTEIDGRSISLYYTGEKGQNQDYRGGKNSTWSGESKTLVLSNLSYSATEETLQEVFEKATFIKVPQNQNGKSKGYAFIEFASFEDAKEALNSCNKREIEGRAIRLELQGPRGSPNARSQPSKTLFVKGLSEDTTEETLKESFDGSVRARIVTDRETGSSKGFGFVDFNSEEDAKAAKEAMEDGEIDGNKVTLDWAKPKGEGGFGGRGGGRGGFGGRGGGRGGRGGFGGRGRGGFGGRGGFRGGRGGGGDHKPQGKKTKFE", "experiment": "SPR (BIAcore 2000), ES amine-coupled on a CM5 chip, NL 62.5-500 nM in flow, 25° C., 1:1 Langmuir model", "data": [{"substance": "Endostatin (recombinant, with N-terminal His-tag) (from UniProt P39060 1572-1754) (ligand)", "values": [{"measurement": "Kd", "result": 23.2, "unit": "nM"}]}]}
